Test results from US20230250167A1 (published 2023).
“And” between values parts separate entries of the source, which are not always exact repeats. Equal values may be shown once.

B1: ILT70080.2 (antibody, V domains shown)
VH: QVQLVQSGAEVKKPGSSVKVSCKASGDSFRNYAVSWVRQAPGQGLEWMGAMMPSFGTREHSQQFQGRVTLSADESTSTAYMELSSLRSEDTAVYYCAGSRDYNAYHFWTGPPDFWGRGTLVTVSS
VL: SYVLTQPPSVSVAPGKTARITCGGDSVGSTSVHWYQQKPGQAPVMVMFYNSDRPSGIPERFSGSISGNTATLTISRVEAGDEADYYCQVWDTSSDHPEFGGGTKLTVL
notes: Engineered (germlined) ILT70080 variant tested as IgG1; also called ILT70080 variant
B2: ILT70080.1 (antibody, V domains shown)
VH: QVQLVQSGAEVKKPGSSVKVSCKASGDSFRNYAVSWVRQAPGQGLEWMGAMMPSFGTREHSQQFQGRVTLTADESTSTAYMELSSLRSEDTAVYYCAGSRDYNAYHFWTGPPDFWGRGTLVTVSS
VL: SYVLTQPPSVSVAPGKTARITCGGDSVGSTSVHWYQQKPGQAPVMVMFYNSDRPSGIPERFSGSISGNTATLTISRVEAGDEADYYCQVWDTSSDHPEFGGGTKLTVL
notes: as for B1
B3: ILT70080.3 (antibody, V domains shown)
VH: QVQLVQSGAEVKAPGTSVKVSCKASGDSFRNYAVSWVRQAPGQGLEWMGAMMPSFGTREHSQQFQGRVTLSADESTSTAYMELSSLRSEDTAVYYCAGSRDYNAYHFWTGPPDFWGRGTLVTVSS
VL: SYVLTQPPSVSVAPGKTARITCGGDSVGSTSVHWYQQKPGQAPVMVMFYNSDRPSGIPERFSGSISGNTATLTISRVEAGDEADYYCQVWDTSSDHPEFGGGTKLTVL
notes: as for B1
B4: ILT70080.4 (antibody, V domains shown)
VH: QVQLVQSGAEVKAPGTSVKVSCKASGDSFRNYAVSWVRQAPGQGLEWMGAMMPSFGTREHSQQFQGRVTLSADESTSTAYMELSSLRSEDTAVYYCAGSRDYNAYHFWTGPPDFWGRGTLVTVSS
VL: SYELTQPPSVSVAPGKTAKISCGGDSVGSTSVHWYQQKPGQAPVMVMFYNSDRPSGIPERFSGSISGNTATLTISRVEAGDEADYYCQVWDTSSDHPEFGGGTKLTVL
notes: as for B1
B5: ILT70080.5 (antibody, V domains shown)
VH: QVQLVQSGAEVKKPGSSVKVSCKASGDSFRNYAVSWVRQAPGQGLEWMGAMMPSFGTREHSQQFQGRVTLTADESTSTAYMELSSLRSEDTAVYYCAGSRDYNAYHFWTGPPDFWGRGTLVTVSS
VL: SYVLTQPPSVSVAPGKTARITCGGDSVGSTSVHWYQQKPGQAPVMVMFYNSDRPSGIPERFSGSNSGNTATLTISRVEAGDEADYYCQVWDTSSDHPEFGGGTKLTVL
notes: as for B1
B6: ILT70080.6 (antibody, V domains shown)
VH: QVQLVQSGAEVKKPGSSVKVSCKASGDSFRNYAVSWVRQAPGQGLEWMGAMMPSFGTREHSQQFQGRVTLTADESTSTAYMELSSLRSEDTAVYYCAGSRDYNAYHFWTGPPDFWGRGTLVTVSS
VL: SYVLTQPPSVSVAPGKTARITCGGDSVGSTSVHWYQQKPGQAPVLVIYYNSDRPSGIPERFSGSNSGNTATLTISRVEAGDEADYYCQVWDTSSDHPEFGGGTKLTVL
notes: as for B1
B7: ILT70080.7 (antibody, V domains shown)
VH: QVQLVQSGAEVKKPGSSVKVSCKASGDSFRNYAVSWVRQAPGQGLEWMGAMMPSFGTREHSQQFQGRVTLTADESTSTAYMELSSLRSEDTAVYYCAGSRDYNAYHFWTGPPDFWGRGTLVTVSS
VL: SYVLTQPPSVSVAPGKTARITCGGDSVGSTSVHWYQQKPGQAPVLVMFYNSDRPSGIPERFSGSNSGNTATLTISRVEAGDEADYYCQVWDTSSDHPEFGGGTKLTVL
notes: as for B1
B8: afucosylated ILT70080.6 (antibody, V domains shown)
VH: QVQLVQSGAEVKKPGSSVKVSCKASGDSFRNYAVSWVRQAPGQGLEWMGAMMPSFGTREHSQQFQGRVTLTADESTSTAYMELSSLRSEDTAVYYCAGSRDYNAYHFWTGPPDFWGRGTLVTVSS
VL: SYVLTQPPSVSVAPGKTARITCGGDSVGSTSVHWYQQKPGQAPVLVIYYNSDRPSGIPERFSGSNSGNTATLTISRVEAGDEADYYCQVWDTSSDHPEFGGGTKLTVL
modifications: afucosylated (no core fucose on the Fc N-glycan)
B9: ILT70083.1 (antibody, V domains shown)
VH: EVQLLESGGGLVQPGGSLRLSCAASGFTFSSYAMSWVRQAPGKGLEWVSAISGSGGSTYYADSVKGWFTISRDNSKNTLYLQMNSLRAEDTAVYYCARRTYYYDSDGHSDVFDIWGRGTLVTVSS
VL: QSVVTQPPSVSAAPGQKVTISCSGSASNIGSNFVSWYQQLPGTAPKLLIYDNDKRDLGIPDRFSASISSTSATLGITGLQTGDEADYYCGTWDTSLTVGVFGGGTKLTVL
B10: ILT70083.2 (antibody, V domains shown)
VH: EVQLLESGGGLVQPGGSLRLSCAASGFTFSSYAMSWVRQAPGKGLEWVSAISGSGGSTYYADSVKGWFTISRDNSKNTLYLQMNSLRAEDTAVYYCARRTYYYDSDGHSDVFDIWGRGTLVTVSS
VL: QSVLTQPPSVSAAPGQKVTISCSGSASNIGSNFVSWYQQLPGTAPKLLIYDNDKRDLGIPDRFSASISSTSATLGITGLQTGDEADYYCGTWDTSLTVGVFGGGTKLTVL
B11: ILT70083.5 (antibody, V domains shown)
VH: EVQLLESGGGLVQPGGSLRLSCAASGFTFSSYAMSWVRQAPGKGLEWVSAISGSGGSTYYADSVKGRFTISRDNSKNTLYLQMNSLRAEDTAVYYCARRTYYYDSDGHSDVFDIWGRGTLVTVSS
VL: QSVVTQPPSVSAAPGQKVTISCSGSASNIGSNFVSWYQQLPGRAPKLLIYDNDKRDLGIPDRFSASISSTSAALAITGLQTEDEADYYCGTWDTSLTVGVFGGGTKLTVL
B12: ILT70083.7 (antibody, V domains shown)
VH: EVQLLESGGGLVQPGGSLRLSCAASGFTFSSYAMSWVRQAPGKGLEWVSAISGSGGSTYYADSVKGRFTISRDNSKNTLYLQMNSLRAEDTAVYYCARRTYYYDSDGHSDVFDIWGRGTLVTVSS
VL: QSVLTQPPSVSAAPGQKVTISCSGSASNIGSNFVSWYQQLPGTAPKLLIYDNDKRDLGIPDRFSASISSTSATLGITGLQTGDEADYYCGTWDTSLTVGVFGGGTKLTVL
B13: ILT70083.8 (antibody, V domains shown)
VH: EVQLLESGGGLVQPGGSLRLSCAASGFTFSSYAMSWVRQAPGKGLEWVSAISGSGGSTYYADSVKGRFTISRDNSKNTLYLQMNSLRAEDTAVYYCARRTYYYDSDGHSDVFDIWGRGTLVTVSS
VL: QSVVTQPPSVSAAPGQKVTISCSGSASNIGSNFVSWYQQLPGTAPKLLIYDNDKRDLGIPDRFSGSKSGTSATLGITGLQTGDEADYYCGTWDTSLTVGVFGGGTKLTVL
notes: Engineered (germlined) ILT70083 IgG1 variant; also called ILT70083 variant
B14: ILT70083.9 (antibody, V domains shown)
VH: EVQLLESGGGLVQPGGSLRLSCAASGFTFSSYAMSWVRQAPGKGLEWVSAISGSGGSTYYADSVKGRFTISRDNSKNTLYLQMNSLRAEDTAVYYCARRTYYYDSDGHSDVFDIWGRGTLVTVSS
VL: QSVLTQPPSVSAAPGQKVTISCSGSASNIGSNFVSWYQQLPGTAPKLLIYDNDKRDLGIPDRFSGSKSGTSATLGITGLQTGDEADYYCGTWDTSLTVGVFGGGTKLTVL
notes: as for B13
B15: ILT70083.3 (antibody, V domains shown)
VH: EVQLLESGGGLVQPGGSLRLSCAASGFTFSSYAMSWVRQAPGKGLEWVSAISGSGGSTYYADSVKGWFTISRDNSKNTLYLQMNSLRAEDTAVYYCARRTYYYDSDGHSDVFDIWGRGTLVTVSS
VL: QSVVTQPPSVSAAPGQKVTISCSGSASNIGSNFVSWYQQLPGTAPKLLIYDNDKRDLGIPDRFSGSKSGTSATLGITGLQTGDEADYYCGTWDTSLTVGVFGGGTKLTVL
notes: as for B13
B16: ILT70083.4 (antibody, V domains shown)
VH: EVQLLESGGGLVQPGGSLRLSCAASGFTFSSYAMSWVRQAPGKGLEWVSAISGSGGSTYYADSVKGWFTISRDNSKNTLYLQMNSLRAEDTAVYYCARRTYYYDSDGHSDVFDIWGRGTLVTVSS
VL: QSVLTQPPSVSAAPGQKVTISCSGSASNIGSNFVSWYQQLPGTAPKLLIYDNDKRDLGIPDRFSGSKSGTSATLGITGLQTGDEADYYCGTWDTSLTVGVFGGGTKLTVL
notes: as for B13
B17: ILT70083.6 (antibody, V domains shown)
VH: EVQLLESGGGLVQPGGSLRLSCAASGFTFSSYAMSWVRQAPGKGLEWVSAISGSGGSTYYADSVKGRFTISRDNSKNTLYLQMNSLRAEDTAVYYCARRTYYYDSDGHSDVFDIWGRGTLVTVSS
VL: QSVVTQPPSVSAAPGQKVTISCSGSASNIGSNFVSWYQQLPGTAPKLLIYDNDKRDLGIPDRFSASISSTSATLGITGLQTGDEADYYCGTWDTSLTVGVFGGGTKLTVL
notes: as for B13
B18: afucosylated IgG1 ILT70137 (antibody, V domains shown)
VH: QVQLQQSGAEVKKPGASVKVSCKASGYTFTSYGISWVRQAPGQGLEWMGWISAYNGNTNYAQKLQGRVTMTTDTSTSTAYMELRSLRSDDTAVYYCARNGLWGWDSDAFDIWGRGTLVTVSS
VL: QSALTQPASVSGSPGQSITISCTGTSSDVGGYNYVSWYQQHPGKAPKLMIYDVSNRPSGVSNRFSGSKSGNTASLTISGLQAEDEADYYCSSYTSSSTVVFGGGTKVTVL
modifications: afucosylated (made as in Example 7: lacks the α-1,6 fucose moiety on the N-glycan at Asn-297 of the heavy chain)

Assays:
[1] = molecular target: human ILT7 expressed on transfected cells (human, UniProt P59901 24-499); experiment: cell-based or functional assay
[2] = molecular target: T1, cynomolgus ILT7 expressed on transfected cells (cynomolgus, UniProt P59901 24-499 (human entry)); experiment: flow cytometry on CT-125 cells expressing cynomolgus ILT7
T1 construct: also called cyno ILT7; CynoILT7 CT-125 cells
Method: Binding of anti-ILT7 variants and isotype controls on human and cynomolgus ILT7 was assessed by flow cytometry analysis using CT-550 and cynoILT7 CT-125 cells respectively. CT-125 cells were used as control. Cells were resuspended in Blocking Buffer (PBS supplemented with 10% FBS) at a concentration of 5 million cells per mL and transferred into a round-bottom 96-well plates (BD Falcon™ Clear Microtest Plate, BD Biosciences) at 100 μL per well. Anti-ILT7 variants and control antibodies were added onto the cells for 30 min at 4° C. on a plate shaker. Cells were washed three times with PBS and resuspended in Blocking Buffer (100 μL/well). Human IgG binding on cell surface was detected using a secondary anti-human IgG antibody conjugated to DyLight 649 (1 in 1000 dilution). Cells were incubated in the dark for 30 min at 4° C. on a plate shaker. Cells were washed three times with PBS and surface fluorescence was acquired using LSRII Flow Cytometry System and FACSDiva Software (both from BD Biosciences).
The resultant IgG1s were tested to confirm that the sequence changes incorporated into ILT70080 and ILT70083 and had not adversely impacted the binding of the parent antibody to cells expressing human ILT7 (CT-550 cells) or cynomolgus ILT7 (CT-125 cells). The variants were screened for binding by flow cytometry. […] However, five ILT70083 variants (ILT70083.4, ILT70083.9, ILT70083.3, ILT70083.6, and ILT70083.8) had improved binding capacity compared to the parental antibody for cynomolgus ILT7.

[3] = molecular target: T1, cynomolgus ILT7 expressed on …; experiment: cell-based or functional assay

Chain of human ILT7 expressed on transfected cells (P59901 24-499): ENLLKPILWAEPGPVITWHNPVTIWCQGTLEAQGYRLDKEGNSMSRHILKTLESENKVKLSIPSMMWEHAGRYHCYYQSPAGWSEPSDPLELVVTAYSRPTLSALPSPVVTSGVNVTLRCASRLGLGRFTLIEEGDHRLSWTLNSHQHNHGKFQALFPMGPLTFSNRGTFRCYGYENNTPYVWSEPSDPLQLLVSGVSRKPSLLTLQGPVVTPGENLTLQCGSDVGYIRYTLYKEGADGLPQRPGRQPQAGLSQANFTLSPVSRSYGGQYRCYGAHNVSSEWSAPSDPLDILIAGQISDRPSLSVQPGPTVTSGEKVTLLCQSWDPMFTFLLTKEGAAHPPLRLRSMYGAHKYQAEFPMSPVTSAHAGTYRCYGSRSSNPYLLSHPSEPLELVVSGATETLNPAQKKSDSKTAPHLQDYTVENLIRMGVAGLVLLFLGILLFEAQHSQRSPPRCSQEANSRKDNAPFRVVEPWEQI
T1 sequence (P59901 other isoform, or with tags, fused parts or gaps limits assumed): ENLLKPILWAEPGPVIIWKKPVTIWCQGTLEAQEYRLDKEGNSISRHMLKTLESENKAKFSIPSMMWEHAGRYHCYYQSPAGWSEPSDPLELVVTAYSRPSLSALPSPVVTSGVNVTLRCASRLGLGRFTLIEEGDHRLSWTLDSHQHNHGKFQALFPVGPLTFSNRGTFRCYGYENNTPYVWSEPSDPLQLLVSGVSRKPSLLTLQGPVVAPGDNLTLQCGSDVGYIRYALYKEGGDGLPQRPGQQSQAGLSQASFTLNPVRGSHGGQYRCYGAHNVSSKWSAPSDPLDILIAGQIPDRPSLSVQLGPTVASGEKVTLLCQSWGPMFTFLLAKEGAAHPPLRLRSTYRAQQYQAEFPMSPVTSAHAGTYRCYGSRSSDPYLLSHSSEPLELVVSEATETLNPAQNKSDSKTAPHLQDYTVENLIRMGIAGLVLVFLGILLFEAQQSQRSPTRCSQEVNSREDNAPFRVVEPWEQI

Binder	ADCC potency EC50 [1]	binding result [2]	ADCC EC50 [3]	ADCC EC50 [1]
B1	< 14.1 µM	binds		
B2	< 14.1 µM and 8 µM and 10 µM	binds		
B3	< 14.1 µM and 11 µM	binds		
B4	< 14.1 µM and 11.9 µM	binds		
B5	< 14.1 µM and 8.6 µM	binds		
B6	< 14.1 µM and 6.9 µM	binds		
B7	< 14.1 µM and 7.8 µM	binds		
B8			0.44 µM	1.12 µM
B9	> 89 µM			
B10	> 89 µM			
B11	> 89 µM			
B12	> 89 µM			
B13	> 89 µM	binds		
B14	> 89 µM	binds		
B15	> 89 µM	binds		
B16	> 89 µM	binds		
B17	> 89 µM	binds		
B18			1.89 µM	4.19 µM
